Data on 56 molecules can be found in US7026443.

Assay [1] concerns the target HLA-A*1101 (human). Put plainly: competition with 125I-labelled standard peptide for purified HLA-A*1101, gel filtration. Background: Size exclusion chromatography separates by hydrodynamic size, large species first.
Assay [2] has as its target HLA-A*0201 (human). Put plainly: competition with 125I-labelled standard peptide for purified HLA-A*0201, gel filtration.
Assay [3] has as its target HLA-A*1101 (human). Put plainly: competition with 125I-labeled standard peptide for purified HLA, gel filtration.
In assay [4] the target is HLA-A*0301 (human). The description is as above.
The target in assay [5] is HLA-A*0301 (human). In words: competition with 125I-labelled standard peptide for purified HLA-A*0301, gel filtration.
[6] abbreviates: remark: other sources report otherwise.

Read-outs that look alike come from different tables or passages of the source.

With SVICFVNSK (modifications not checked) [… (HPV16 E1, position 497, 9 amino acids)], the binding affinity ratio (IC50 of the standard peptide / IC50 of the test peptide) in assay [1] was 0.0002.
On to SLQDIEITCV (modifications not checked) [HPV18 E6 peptide … (position 24)], for which the relative binding ratio (IC50 of standard peptide / IC50 of test peptide) in assay [2] is 0.025.
Regarding SCCRSSRTR (modifications not checked) [… (HPV16 E6, position 145, 9 amino acids)], the relative binding ratio (IC50 of standard peptide / IC50 of test peptide) in assay [1] came out at 0.0001.
Consider SLFGMSLMK (modifications not checked) [… (HPV16 E1, position 484, 9 amino acids)], for which the binding affinity ratio (IC50 of the standard peptide / IC50 of the test peptide) in assay [1] is 7.1.
For ELRHYSDSVY (modifications not checked) [HPV18 E6 77 …], the binding affinity ratio (IC50 of standard peptide / IC50 of test peptide) in assay [1] turned out to be 0.0002.
With CVQSTHVDIR (modifications not checked) [… (HPV16 E7, position 68, 10 amino acids)], the relative binding ratio (IC50 of standard peptide / IC50 of test peptide) in assay [1] worked out at 0.0001.
Regarding AGHYRGQCH (modifications not checked) [HPV18 E6 131 …], in assay [1], the binding affinity ratio (IC50 of standard peptide / IC50 of test peptide) was 0.0002.
Consider GLTPSIADSI (modifications not checked) [HPV16 E1 242 peptide …], for which the relative binding ratio (IC50 of standard peptide / IC50 of test peptide) in assay [2] was 0.0002.
Turning to TVLELTEV (modifications not checked) [HPV18 E6 peptide TVLELTEV (position 37)], the relative binding ratio (IC50 of standard peptide / IC50 of test peptide) in assay [2] stood at 0.001.
Turning to CMCCKCEARI (modifications not checked) [HPV18 E7 peptide … (position 63)], the relative binding ratio (IC50 of standard peptide / IC50 of test peptide) in assay [2] turned out to be 0.002.
Same read-out and setting: as for GAANTGKSL (modifications not checked) [HPV16 E1 477 peptide …], the figure is 0.0003.
Take YCKQQLLRR (modifications not checked) [… (HPV16 E6, position 39, 9 amino acids)]: the relative binding ratio (IC50 of standard peptide / IC50 of test peptide) in assay [1] stood at 0.0001.
Turning to NVLKTSNAK (modifications not checked) [… (HPV16 E1, position 196, 9 amino acids)], the binding affinity ratio (IC50 of the standard peptide / IC50 of the test peptide) in assay [1] came to 0.0015.
Turning to CCKCDSTLR (modifications not checked) [… (HPV16 E7, position 58, 9 amino acids)], the relative binding ratio (IC50 of standard peptide / IC50 of test peptide) in assay [1] turned out to be 0.0001.
Consider DTLEKLTNT (modifications not checked) [HPV18 E6 88 …], for which the binding affinity ratio (IC50 of the standard peptide / IC50 of the test peptide) in assay [2] was 0.0001.
As to ATMCKHYRR (modifications not checked) [HPV18 E1 position 413 peptide …], the binding affinity ratio (IC50 of standard peptide / IC50 of test peptide) in assay [3] stood at 0.28.
For the molecule KLTNTGLYNL (modifications not checked), in assay [2], the relative binding ratio (IC50 of standard peptide / IC50 of test peptide) stood at 0.0048.
IVCPICSQK (modifications not checked) [… (HPV16 E7, position 89, 9 amino acids)]: the relative binding ratio (IC50 of standard peptide / IC50 of test peptide) in assay [1] (setting [6]) was found to be 0.0065.
Consider RLQRRRETQV (modifications not checked) [HPV18 E6 peptide … (position 149)], for which the relative binding ratio (IC50 of standard peptide / IC50 of test peptide) in assay [2] came out at 0.0001.
IAAFGLTPSI (modifications not checked) [HPV16 E1 238 peptide …]: the relative binding ratio (IC50 of standard peptide / IC50 of test peptide) in assay [2] came to 0.0002.
As to GTGCNGWFYV (modifications not checked) [HPV16 E1 12 peptide …], the relative binding ratio (IC50 of standard peptide / IC50 of test peptide) in assay [2] is 0.0006.
As for TGRCMSCCR (modifications not checked) [… (HPV16 E6, position 140, 9 amino acids)], the relative binding ratio (IC50 of standard peptide / IC50 of test peptide) in assay [1] is 0.0001.
DLRAFQQLFL (modifications not checked) [HPV18 E7 peptide … (position 82)]: in assay [2], the relative binding ratio (IC50 of standard peptide / IC50 of test peptide) was determined as 0.001.
On to PLNPAEKL (modifications not checked) [HPV18 E6 peptide PLNPAEKL (position 111)], for which the relative binding ratio (IC50 of standard peptide / IC50 of test peptide) in assay [2] came out at 0.0001.
Turning to DLQPETTDLY (modifications not checked) [… (HPV16 E7, position 14, 10 amino acids)], the relative binding ratio (IC50 of standard peptide / IC50 of test peptide) in assay [1] (setting [6]) worked out at 0.0002.
Consider EIDGVNHQHL (modifications not checked) [HPV18 E7 peptide … (position 40)], for which, in assay [2], the relative binding ratio (IC50 of standard peptide / IC50 of test peptide) turned out to be 0.0001.
Consider TAAALYWYK (modifications not checked) [HPV16 E1 peptide … (position 315, 9 amino acids)], for which the relative binding ratio (IC50 of standard peptide / IC50 of test peptide) in assay [4] worked out at 0.78.
On to LVSMDVKHR (modifications not checked) [HPV16 E1 544 …], for which, in assay [1], the binding affinity ratio (IC50 of standard peptide / IC50 of test peptide) (ratio to standard peptide) came out at 0.0089. Moreover, the binding affinity ratio (IC50 of standard peptide / IC50 of test peptide) in assay [5] was determined as 0.0005.
For KLTNTGLYNLL (modifications not checked), in assay [2], the relative binding ratio (IC50 of standard peptide / IC50 of test peptide) amounted to 0.0043.
With GTGCNGWFYV (modifications not checked) [HPV18 E1 peptide … (position 11, 10 amino acids)], in assay [2], the binding affinity ratio (IC50 of the standard peptide / IC50 of the test peptide) came out at 0.0006.
Turning to NTSLQDIEIT (modifications not checked) [HPV18 E6 peptide … (position 22)], the relative binding ratio (IC50 of standard peptide / IC50 of test peptide) in assay [2] was determined as 0.0001.
Take FIQGAVISFV (modifications not checked) [HPV18 E1 peptide … (position 500, 10 amino acids)]: the binding affinity ratio (IC50 of the standard peptide / IC50 of the test peptide) in assay [2] was determined as 0.046.
Still for that read-out and setting: next, DLFVVYRDSI (modifications not checked) [HPV18 E6 51 …]: 0.0001.
Consider CTFELSQMV (modifications not checked) [HPV16 E1 … (position 353)], for which the relative binding ratio (IC50 of standard peptide / IC50 of test peptide) in assay [2] was found to be 0.0029.
Consider RLKAICIEK (modifications not checked) [… (HPV16 E1, position 109, 9 amino acids)], for which the binding affinity ratio (IC50 of the standard peptide / IC50 of the test peptide) in assay [1] amounted to 0.051.
With FLQGSVICFV (modifications not checked) [HPV16 E1 493 peptide …], the relative binding ratio (IC50 of standard peptide / IC50 of test peptide) in assay [2] is 0.23.
The same measure, in the same setting: as for AAFGLTPSI (modifications not checked) [HPV16 E1 … (position 239)], the figure is 0.0012.
Regarding LSLHEDEDK (modifications not checked) [HPV16 E1 620 …], in assay [1], the binding affinity ratio (IC50 of standard peptide / IC50 of test peptide) (ratio to standard peptide) was determined as 0.0002. For the same molecule, the binding affinity ratio (IC50 of standard peptide / IC50 of test peptide) in assay [5] amounted to 0.0005.
GDTPEWIQR (modifications not checked) [HPV18 E1 position 341 peptide …]: the binding affinity ratio (IC50 of standard peptide / IC50 of test peptide) in assay [1] stood at 0.0002.
LTNILNVLK (modifications not checked) [HPV16 E1 191 …]: the binding affinity ratio (IC50 of standard peptide / IC50 of test peptide) (ratio to standard peptide) in assay [1] was 0.42. For the same molecule, the binding affinity ratio (IC50 of standard peptide / IC50 of test peptide) in assay [5] came out at 0.0086.
As for NAKAAMLAK (modifications not checked) [HPV16 E1 202 …], the binding affinity ratio (IC50 of standard peptide / IC50 of test peptide) (ratio to standard peptide) in assay [1] was found to be 0.0031.
As for CMCCKCEA (modifications not checked) [HPV18 E7 peptide CMCCKCEA (position 63)], in assay [2], the relative binding ratio (IC50 of standard peptide / IC50 of test peptide) turned out to be 0.0005.
The same measure, in the same setting: as for SVYGDTLEKL (modifications not checked) [HPV18 E6 peptide … (position 84)], the figure is 0.0028.
For the molecule PLCPEEKQR (modifications not checked) [… (HPV16 E6, position 116, 9 amino acids)], the relative binding ratio (IC50 of standard peptide / IC50 of test peptide) in assay [1] amounted to 0.0005.
For NINAGTDSR (modifications not checked) [HPV16 E1 567 …], the binding affinity ratio (IC50 of standard peptide / IC50 of test peptide) (ratio to standard peptide) in assay [1] was 0.0002.
EGTGCNGWFY (modifications not checked) [HPV16 E1 11 …]: the relative binding ratio (IC50 of standard peptide / IC50 of test peptide) in assay [1] was 0.0002.
Take GIVCPICSQK (modifications not checked) [… (HPV16 E7, position 88, 10 amino acids)]: the relative binding ratio (IC50 of standard peptide / IC50 of test peptide) in assay [1] (setting [6]) amounted to 0.067.
ELNTSLQDI (modifications not checked) [HPV18 E6 20 …]: in assay [2], the binding affinity ratio (IC50 of the standard peptide / IC50 of the test peptide) stood at 0.0001.
Consider TAQEAKQHR (modifications not checked) [… (HPV16 E1, position 72, 9 amino acids)], for which the binding affinity ratio (IC50 of the standard peptide / IC50 of the test peptide) in assay [1] came out at 0.0025.
For the molecule KLRHLNEKR (modifications not checked) [HPV18 E6 117 …], the binding affinity ratio (IC50 of standard peptide / IC50 of test peptide) in assay [1] came to 0.0005.
Consider AICIEKQSR (modifications not checked) [HPV16 E1 112 …], for which the relative binding ratio (IC50 of standard peptide / IC50 of test peptide) in assay [1] is 0.0057.
With ELRHYSDSV (modifications not checked) [HPV18 E6 peptide … (position 77)], in assay [2], the relative binding ratio (IC50 of standard peptide / IC50 of test peptide) worked out at 0.0003.
As to FIHFIQGAVI (modifications not checked) [HPV18 E1 peptide … (position 497, 10 amino acids)], the binding affinity ratio (IC50 of the standard peptide / IC50 of the test peptide) in assay [2] turned out to be 0.0057.
Take WTGRCMSCCR (modifications not checked) [… (HPV16 E6, position 139, 10 amino acids)]: the relative binding ratio (IC50 of standard peptide / IC50 of test peptide) in assay [1] stood at 0.0008.
As to DSIPHAACH (modifications not checked) [HPV18 E6 58 …], the binding affinity ratio (IC50 of standard peptide / IC50 of test peptide) in assay [1] worked out at 0.0002.
Turning to DLRAFQQL (modifications not checked) [HPV18 E7 peptide DLRAFQQL (position 82)], in assay [2], the relative binding ratio (IC50 of standard peptide / IC50 of test peptide) was determined as 0.0001.
